Measured values reported in patent US20220347267A1, “METHODS TO IMPROVE PATIENT RESPONSE TO IMMUNE CHECKPOINT INHIBITORS AND FUNCTIONAL TESTS TO PREDICT RESPONSE” (Biomarker Strategies, LLC, priority 2019, published 2022).

Columns and labels:
SKMES1 cells = assay: Western blot of secreted and intact PDL1 in media and lysate; type: cell-based, human; settings: 10 ng/mL IFNg for 24 h, concentrated media and lysate, antibody clone E1J2J
Procedure: Different forms of PDL1 can be expressed at baseline as well as after modulation, and the abundance of each form will impact response to therapy. The two major forms are membrane bound and soluble (secreted or intracellular compartments). The relative ratios of the forms, and their cellular locations, can be changed by a modulator and will require different strategies for optimal ICI therapy. As way of example, the cell line SKMES1 was treated with vehicle or 10 ng/mL IFNg for 24 h. After treatment, media was collected and concentrated using an Amicon ultra 0.5 mL centrifugal filter with a 10 kDa cutoff. The retentate, containing proteins >10 kDa, was recovered in a clean tube at 14000 rpm for 5 min. Simultaneously, lysates of the same cells were made. PDL1 was then detected using 10% Tris-Glycine SDS gels and PVDF membranes. The western blot was carried out using 5% non-fat dry milk in TBST for 1h, followed by incubation with primary antibody against PDL1 (clone E1J2J; raised to the extracellular portion of PDL1) in 2% BSA for overnight, then anti-rabbit HRP secondary antibody before using a chemiluminescent reagent (Bio-Rad). […] Thus, by using westerns where the intact and secreted forms of PDL1 are first resolved by MW and different types of sample/resource material (media vs lysate or blood/plasma vs tumor), the response to therapy can be predicted. […]

H460 cells = assay: PD-L1 mRNA one step RT-qPCR, IFNγ treatment; type: cell-based, human; settings: 10 ng/mL IFNγ for 24h, normalized by GAPDH
Procedure: Additionally, the presence, abundance and ratio of different PD-L1 mRNA forms can be used to predict response. As way of example, PD-L1 mRNA were measured using primers amplifying within exon 3-4 (extracellular region of the transcribed protein that interacts with PD1). Other amplicons detecting the same or other forms can be used readily. For example, amplicons corresponding to the transmembrane and cytoplasmic tail to confirm full length plasma membrane bound protein is transcribed, or regions overlapping with either PD1 or anti-PD-L1 binding sites. Five cell lines (H460, H1299, H1650, H2126 and SKMES1) were treated with vehicle or 10 ng/mL IFNγ for 24h. More complex sample types, including cells isolated from solid tumors from preclinical and clinical cancers be used. Other time points, including those as early as 1h for IRF or 4h for PD-L1, can be readily used. RNA was isolated from the cells using an NEB kit (Cat #T2010) per the manufacturer's instructions. Isolated RNA was estimated using a NanoDrop […] and checked for its quality by checking the 260/280 ratio. RNA concentration was brought to 40 ng/uL in all the samples to take equal quantity for further steps of RT and real time PCR. One step RT-qPCR was performed using a Power SYBR Green RNA to Ct One step kit (Cat #4931198) as per the manufacturer's instructions. A 200 ng RNA template was taken for total 20 uL reaction per well in 96 well PCR microplate for Roche 480 Light cycler. The following primer pairs (Sigma) were used for PD-L1 and GAPDH and were used at a concentration in the reaction mixture of 400 nM:
A Roche 480 Light cycler was used for performing the one step real time PCR. Data was analyzed using 2^-ΔΔCt method normalized by GAPDH for relative levels. Alternative housekeeper genes may be readily used.

B1: IFNγ: human IFNγ, modulator (10 ng/ml; Sigma Aldrich) (protein, UniProt P01579 24-161, looked up)
Interferon gamma: QDPYVKEAENLKKYFNAGHSDVADNGTLFLGILKNWKEESDRKIMQSQIVSFYFKLFKNFKDDQSIQKSVETIKEDMNVKFFNSNKKKRDDFEKLTNYSVTDLNVQRKAIHELIQVMAELSPAAKTGKRKRSQMLFRG
SKMES1 cells
  expression of secreted and intact PDL1: detected the expression of secreted and intact PDL1
H460 cells
  change of PD-L1 mRNA upon IFNγ exposure: decrease
